# Molecular target: Du156.12
# Assay: ELISA
row,EC50,Substance
1,0.101 µg/mL,VRC01 Heavy chain: A56G
2,0.063 µg/mL,VRC01 Heavy chain: I30T
3,0.056 µg/mL,VRC01 Heavy chain: K52N
4,0.066 µg/mL,VRC01 Heavy chain: P62K
5,0.063 µg/mL,VRC01 Heavy chain: R53N
6,0.086 µg/mL,VRC01 Heavy chain: R61Q
7,0.048 µg/mL,VRC01 Heavy chain: T33Y
8,0.164 µg/mL,VRC01 Heavy chain: V57T
9,0.097 µg/mL,VRC01 Heavy chain: V73T
10,0.071 µg/mL,VRC01 Heavy chain: Y74S
11,0.196 µg/mL,VRC01 Light chain: Y30S

# Molecular target: Du156.12
# Assay: ELISA; deglycosylated
row,EC50,Substance
1,0.05 µg/mL,Deglycosylated VRC01

# Molecular target: HXBc2
# Assay: ELISA; deglycosylated
row,EC50,Substance
1,0.045 µg/mL,Deglycosylated VRC01

# — patent US20160009789A1
